Test results taken from PMC13480645 (PLOS Pathogens, 2026).

Legend:
[1] = target: T1, HCoV-HKU1 S2 stem helix peptide (Human coronavirus HKU1, isolate N1, biotin on the N-terminus); assay: BLI; details: both partners purified
T1 chain: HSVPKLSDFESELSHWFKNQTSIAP

[2] = target: T2, SARS-CoV-2 spike, full length, expressed on the cell surface (SARS-CoV-2, UniProt P0DTC2); assay: cell-based or functional assay
[3] = target: T3, HCoV-HKU1 S2 stem helix peptide, biotinylated (Human coronavirus HKU1, isolate N1, biotin on the N-terminus); assay: BLI; details: both partners purified
T3 construct: also called HCoV-HKU1 stem helix peptide
T3 chain: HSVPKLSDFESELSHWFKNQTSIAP

[4] = target: T2, SARS-CoV-2 spike, full length, …; assay: flow cytometry on cells; details: one partner purified

B1: eCC65.1-12 (antibody, V domains shown)
VH: EVQLVQSGAEVKKPGASVKVSCKASGYTFTSQYMHWVRQAPGQGLEWMGIIDPSGGGTSYAQKFRDRVSMTRDTPTSTVYMELRSLRSEDTAVYYCASLWFENPSWRDYWGQGTLVTVSS
VL: DVVMTQSPGTLSLSPGERATLSCRASQTVNKNYLAWYQQKPGQAPRLLIYHASSRATGIPDRFSGSGSGTDFTLTISRLEPEDFAVYYCQQYGASPPLFTFGPGTKLEIK
Kd [1]: 0.129 nM
kon [1]: 301000 M⁻¹ s⁻¹

B2: CC65.1 human monoclonal antibody (IgG) (antibody, V domains shown)
VH: EVQLVQSGAEVKKPGASVKVSCKASGYTFTSQYMHWVRQAPGQGLEWMGIIDPSGGGTSYAQKFRDRVSMTRDTPTSTVYMELRSLRSEDTAVYYCASLWFENPSWRDYWGQGTLVTVSS
VL: DVVMTQSPGTLSLSPGERATLSCRASQTVNSNYLAWYQQKPGQAPRLLIYRASSRATGIPDRFSGSGSGTDFTLTISRLEPEDFAVYYCQQYGSSPPLFTFGPGTKLEIK
IC50 of neutralization of SARS-CoV-2 pseudovirus (HeLa-hACE2 cells) [2]: 6.16 µg/mL

B3: engineered CC65.1 mAb eCC65.1-12 (IgG) (antibody, V domains shown)
VH: EVQLVQSGAEVKKPGASVKVSCKASGYTFTSQYMHWVRQAPGQGLEWMGIIDPSGGGTSYAQKFRDRVSMTRDTPTSTVYMELRSLRSEDTAVYYCASLWFENPSWRDYWGQGTLVTVSS
VL: DVVMTQSPGTLSLSPGERATLSCRASQTVNKNYLAWYQQKPGQAPRLLIYHASSRATGIPDRFSGSGSGTDFTLTISRLEPEDFAVYYCQQYGASPPLFTFGPGTKLEIK
notes: copies: 2 + 2
fold increase in affinity over parental CC65.1 [3]: 6.7 fold
binding result [4]: binds
